± gives the uncertainty stated by the source.

The data set in a line: amyloid nucleation score (Sup35N fusion, yeast selection) (log enrichment); library NNK1; higher = more nucleation; inactive = no reads after selection. The gist of the method:
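Libraries of peptides of 20 random codons fused to Sup35N were expressed in psi-negative yeast and induced 24 hours with 100 μM copper sulfate. Selection was 7 days at 30°C on medium lacking adenine and uracil, and plasmid inserts were Illumina-sequenced before and after selection. Nucleation score is the DiMSum log enrichment of output over input reads, centred on the mode score of non-aggregating sequences, and sequences with under 100 input reads were left out.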
As to KDSFLMGGLFFMTAAWVSPR, the amyloid nucleation score amounted to 1.54 ± 0.27.
The substance SGNKGRLSLLYYILFMPWLA registered an amyloid nucleation score of -0.412 ± 1.
GGMLQLSSSDFTRWAQEWSI returned an amyloid nucleation score of 0.355 ± 0.73.
Next, LGQGRLYILYFMSMYLDMMG: 0.748 ± 0.47; CLNVCSLFRSTYRFKRVREC: 0.434 ± 0.37; EIRLNYMGFGPKCT: 0.735 ± 0.27.
The substance KSFYGNFRGFFNALNIYHSS gave an amyloid nucleation score of 1.83 ± 0.28.
Next, NNYYA: -0.616 ± 0.52; VGWTALVQALGNGTQHGVVT: 0.394 ± 0.78; SSFSVVFDSHVSS: 0.382 ± 1.4.
In the case of SLSMDIAVRSTTNRHANNIL it was -0.494 ± 1.1; in that of KFFHLAIMWFTPSSPHKGTC, -0.496 ± 0.62; in that of GIWPLGFGKFGSIFRFANVR, 0.939 ± 0.6.
In turn, VYFSSLVIFWYLFLYSFEYL returned an amyloid nucleation score of 0.689 ± 0.48.
In the case of YDPRIGLVSVGNVRNNSV it was -1.48 ± 1.4; in that of YVRWMSLAPSVQWH, 1.11 ± 0.19; in that of FCTLALHNTI, 1.24 ± 0.64.
The substance NYLLWVQVWCRDWGNWGIMG came in with an amyloid nucleation score of 1.41 ± 0.81.
Take SANMKYRTLKQSLG: the amyloid nucleation score is 0.176 ± 0.52.
As for LNYFLLLMFQCDGRILFRFY, the amyloid nucleation score was found to be 0.652 ± 0.84.
The substance NLPVGLEAM gave an amyloid nucleation score of -0.327 ± 0.62.
Substance RQYDMDLVWKRSQNARKRS yielded an amyloid nucleation score of 0.033 ± 0.7.
Next, NNPDTMSI: 0.44 ± 0.56; GGYGSIECFRSLVREKCCSV: 0.086 ± 0.62.
Regarding TVIRESIPKFWFYTLGMLKV, the amyloid nucleation score is -0.6 ± 0.35.
Turning to TRQRKDGYADRMQYNSPLRR, the amyloid nucleation score amounted to 0.342 ± 0.6.
GPRHYKVFHSYSAFGGYSVC: the amyloid nucleation score was 1.01 ± 0.81.
For the substance FRKKCGVNEIYLWGDSG, the amyloid nucleation score result is “inactive”.
YDRMRTSIVRACERNLSDMH displayed an amyloid nucleation score of 0.786 ± 0.35.
Turning to VISHEPAVFPTSRS, the amyloid nucleation score was found to be 0.121 ± 0.45.
In the case of GHKNTRILQV it was -0.444 ± 1.9; in that of CGGFRNMRVPVHLVPACRW, 0.334 ± 0.68; in that of SKTVVTKVKLSIWAGRVLRF, -1.14 ± 1.9.
In the case of CVALGGLMAMLIASVIWENN it was -0.354 ± 0.72.
In the case of WVSNCIFDAGLWRSYYRMGI it was 0.74 ± 0.34; in that of RMMVPYNHFYKSLWSGSTAY, 0.959 ± 0.68; in that of CGMVGWTSLPEQNRYPIPST, -0.511 ± 1.1.
In turn, INKNCTANEP registered an amyloid nucleation score of -0.067 ± 0.23.
Next, ILCKVPVVASSNGS: -0.35 ± 0.5; KSVPRKVFGAILDFLDLQLM: 0.979 ± 0.73; IKYVQIGRRRLKWGGERRPL: 0.311 ± 0.37.
In the case of VFFSKI it was 1.08 ± 0.53; in that of WVLVSVH, 0.211 ± 0.24; in that of NGSSLVANELRVWIVSSFML, -0.59 ± 0.64.
In the case of SDLMWVLSCESLRITHRLVG it was 1.93 ± 0.56; in that of LNCGHYQIASGF, 0.393 ± 0.72.
VTKLNMILMVGTVYGSNIGV yielded an amyloid nucleation score of 6.782 ± 0.05.
In the case of GFSIYRCHYFSGRMVTNVSM it was -0.475 ± 1.7; in that of WCDGYVMFLDTNCIRINHIL, -0.162 ± 0.24.
In turn, FSILILRHCVDLRYRVTSTM gave an amyloid nucleation score of 0.446 ± 0.6.
In the case of SADPFVFVALQWNHGVGSWR it was 4.06 ± 0.069; in that of ICSVRSELNSSTRC, 0.803 ± 0.48.
As for KAPCDFSGFCRCRVTGPSHC, the amyloid nucleation score was found to be 0.412 ± 0.33.
In the case of NWILSLAGFYRSSKVSSCTT, the amyloid nucleation score was determined as 0.41 ± 0.67.
Next, YVQLLMVHNAMYRSAGIFSY: 0.572 ± 0.56; PSRATYCRGSMIHLIFDWIT: 0.955 ± 0.54.
On to DDHSLQPRLPLE, for which the amyloid nucleation score result was “inactive”.
Next, YNVVSSKNNTVRFVLFP: 4.31 ± 0.12; FFGMLDPSTER: -0.73 ± 0.36; HNVLRSHTSRYRYVM: 0.226 ± 0.7.
Next, NGFSYVCFNGFQLMCLDSIM: 7.779 ± 0.044; IRMVL: 0.697 ± 0.44.
PLYGC displayed an amyloid nucleation score of 0.634 ± 0.72.
In the case of KLDNCGCGRGCEQLDVVQSQ it was 0.044 ± 0.53.
The substance NINYLFVLYMDGSCMYWRAL had an amyloid nucleation score of 6.354 ± 0.049.
Next, SLLTYQ: 0.757 ± 0.27.
In the case of SYPSGSP it was -0.061 ± 0.96.
Turning to VEFGSHVFYLKGRSDKAKYL, the amyloid nucleation score is -0.283 ± 0.45.
In the case of VTSYFKIRLCFPRGMASCTR it was 3.37 ± 0.19; in that of NVTFHSRSGV, -0.316 ± 0.84; in that of ILVVAVI, -0.64 ± 0.39.
For the substance RDNFEMFSPAAKYALFASGT, the amyloid nucleation score result was “inactive”.
Take VDYMERGYYAYIMVGICI: the amyloid nucleation score entry is “inactive”.
Next, FWHPLG: -0.342 ± 0.28; LALVFLLMFVHQSDDYKLRN: 2.89 ± 0.17.
Next, AWNTGSIARHSFSRIVSTCD: 0.182 ± 0.39.
In the case of IGYCRGHAYKMRYFSVRWFV it was -1.25 ± 1.7; in that of ICDINQCRMAFYLCFLLREY, 3.35 ± 0.099.
Consider CYCWPTTKKIPFKSL, for which the amyloid nucleation score was -0.739 ± 1.9.
Next, SIDFV: 0.989 ± 0.88; VKDATSHASGDFGRPGHWDK: -0.042 ± 0.55.
Next, RLFLSLLMKSRTIMRRKGLV: 2.54 ± 0.15.
Substance MNMICSFL displayed an amyloid nucleation score of -1.39 ± 1.4.
Next, DFILQMLL: 0.401 ± 0.3; CLFFLPQGLKRYE: 0.015 ± 0.53.
The substance MRSLSVLFGIRTCLTVQWSK had an amyloid nucleation score of 0.276 ± 0.66.
Next, WVAINPCV: 0.464 ± 0.88; GPPRN: 0.681 ± 0.65.
Next, HRGTDLSLRSWVDWLHTLRG: 0.67 ± 0.57; WALISYGVWGTRTADLCRCH: 0.907 ± 0.65; NGLSMSLSCRYTLWVIFFSF: -0.157 ± 1.2.
For the substance FKDLNIWDWKNGAHITNCLG, the amyloid nucleation score was found to be 1.05 ± 0.63.
Next, KSYVCGTLTFRLGSVHCVNM: 7.025 ± 0.057; TLTSRVENKFRMVIL: 3.46 ± 0.088; SSIMHSG: 0.925 ± 1.1.
In the case of SLTYCHSIIKDLETLIFRSK, the amyloid nucleation score stood at 0.283 ± 0.61.
In the case of PFYLEARKVDEVMSLTYIV it was -0.693 ± 0.67.
LYGNT yielded an amyloid nucleation score of 1.37 ± 0.38.
Turning to AGSLWFIWGLLSALN, the amyloid nucleation score is -0.893 ± 0.92.
In the case of ERLGMWDSRMVQLWDSFCIE it was 0.363 ± 0.48; in that of VGGNPN, 1.19 ± 0.98; in that of MQTLPIR, -0.519 ± 0.46.
For the substance MPDFSWA, the amyloid nucleation score was -0.115 ± 1.2.
PRDASWRTFVAKA returned an amyloid nucleation score of -0.026 ± 1.7.
Take QSICFYSLKQCIRAKHR: the amyloid nucleation score was determined as 0.774 ± 0.37.

(Values after the supplement of paper PMC12042874.)
